Assay [1] concerns the target T1, His-CYPJ (recombinant) (human, UniProt Q9H2H8 1-161).
T1 chain: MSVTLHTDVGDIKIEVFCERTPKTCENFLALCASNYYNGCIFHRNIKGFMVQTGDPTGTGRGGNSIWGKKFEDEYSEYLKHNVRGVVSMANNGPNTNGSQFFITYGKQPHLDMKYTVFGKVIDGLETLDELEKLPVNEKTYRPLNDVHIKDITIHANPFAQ
Nature of the assay: ITC. Background: Isothermal titration calorimetry measures the heat released or taken up as one component is titrated into another.

In assay [2] the target is T2, His-CYPJ (recombinant) (human, UniProt Q9H2H8 1-161).
T2 construct: cyclophilin J (CYPJ, PPIL3), human; also called recombinant His-CYPJ
T2 sequence (looked up): T1 chain
Nature of the assay: ITC; synthetic NZF peptides and His-CYPJ; MicroCal iTC200, standard procedure. Conditions: both partners purified.

2 molecules from publication PMC6197184, “Cyclophilin J limits inflammation through the blockage of ubiquitin chain sensing” (Nature Communications, 2018) can be followed below.

B1: TAB3-NZF peptide (peptide)
peptide: WNCDSCTFLNHPALNRCEQCEMP
notes: peptide from the NZF domain of TAB3; limits counted from C706 named in the introduction; source: synthetic peptide (DgPeptides)
Turning to B1, the Ka in assay [1] is 1030 M⁻¹. In assay [2], the binding result is recorded as “binds”.

B2: TAB2-NZF peptide (peptide)
peptide: QWNCTACTFLNHPALIRCEQCEMP
notes: peptide from the NZF domain of TAB2; limits counted from C670 and C673 named in the introduction; source: synthetic peptide (DgPeptides)
In the case of B2, the Ka in assay [1] amounted to 283 M⁻¹. Besides, the binding result in assay [2] is on record as “binds”.
